Data published in the supplement of paper PMC7877785.
± gives the uncertainty stated by the source.

Assay: self-splicing fitness, log relative to wild type (ln ratio); higher = more splicing; Tetrahymena group I intron in knt gene, E. coli kanamycin selection, DiMSum; sequences stand for … in CUCUCU…GGAGGGAAAAGUUAUCAGGCAUGCACCUGGUAGCUAGUCUUUAAACCAAUAGAUUGCAUCGGUUUAAAAGGCAAGACCGUCAAAUUGCGGGAAAGGGGUCAACAGCCGUUCAGUACCAAGUCUCAGGGGAAACUUUGAGAUGGCCUUGCAAAGGGUAUGGUAAUAAGCUGACGGACAUGGUCCUAACCACGCAGCCAAGUCCUAAGUCAACAGAUCUUCUGUUGAUAUGGAUGCAGUUCACAGACUAAAUGUCGGUCGGGGAAGAUGUAUUCUUCUCAUAAGAUAUAGUCGGACCUCUCCUUAAUGGGAGCUAGCGGAUGAAGUGAUGCAACACUGGAGCCGCUGGGAACUAAUUUGUAUGCGAAAGUAUAUUGAUUAGUUUUGGAGUACUCGUGGUCG
How it was run: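 Fitness was computed with DiMSum as the error-weighted combination of replicate fold changes, kanamycin versus none, each normalised to wild type. The library randomised all eight intron nucleotides of the P1ex region, with the intron placed in the knt kanamycin-resistance gene on pET-22b(+) in E. coli BL21(DE3). Six replicate transformations were grown overnight at 37°C or 30°C on LB agar with or without 25 μg/mL kanamycin, plus 100 μg/mL carbenicillin, 50 μM IPTG and 0.2% rhamnose. Pooled colonies were amplicon-sequenced on an Illumina HiSeq 2500.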

| Sequence | self-splicing fitness (ln) (30 °C) | self-splicing fitness (ln) (37 °C) |
| --- | --- | --- |
| GUACAGCAAUAUUACGUGGU | -3.43 ± 0.16 | -2.49 ± 0.17 |
| GUACAGCAAUAUUACGUUAG | -2.37 ± 0.15 | -1.74 ± 0.17 |
| GUACAGCAAUAUUACGUUUU | -3.88 ± 0.17 | -2.72 ± 0.14 |
| GUAGAGCAAUAUUACGAACG | -2.44 ± 0.22 | -1.38 ± 0.2 |
| GUAGAGCAAUAUUACGAAUC | -1.28 ± 0.2 | -0.812 ± 0.29 |
| GUAGAGCAAUAUUACGACAC | -0.732 ± 0.15 | 0.357 ± 0.2 |
| GUAGAGCAAUAUUACGCAAU | -2.52 ± 0.11 | -0.0736 ± 0.11 |
| GUAGAGCAAUAUUACGCAGG | -1.51 ± 0.15 | -1.59 ± 0.15 |
| GUAGAGCAAUAUUACGCGGA | -1.47 ± 0.14 | -0.734 ± 0.12 |
| GUAGAGCAAUAUUACGCUGG | -1.56 ± 0.17 | -1.53 ± 0.24 |
| GUAGAGCAAUAUUACGCUUC | -3.16 ± 0.45 | -1.63 ± 0.27 |
| GUAGAGCAAUAUUACGGAAG | -2.83 ± 0.29 | -1.42 ± 0.4 |
| GUAGAGCAAUAUUACGGCAU | -0.0916 ± 0.085 | 0.127 ± 0.12 |
| GUAGAGCAAUAUUACGGCCU | -0.447 ± 0.11 | -0.0153 ± 0.14 |
| GUAGAGCAAUAUUACGGCUC | -1.57 ± 0.26 | -0.26 ± 0.45 |
| GUAGAGCAAUAUUACGGGGC | – | -1.52 ± 0.36 |
| GUAGAGCAAUAUUACGGGUA | -4.17 ± 0.35 | -1.75 ± 0.19 |
| GUAGAGCAAUAUUACGGUAA | -1.74 ± 0.15 | -1.3 ± 0.19 |
| GUAGAGCAAUAUUACGGUUA | -1.35 ± 0.11 | -0.0418 ± 0.13 |
| GUAGAGCAAUAUUACGUAGU | – | -0.866 ± 0.15 |
| GUAGAGCAAUAUUACGUAUA | -1.7 ± 0.28 | -0.319 ± 0.25 |
| GUAGAGCAAUAUUACGUCGG | -1.87 ± 0.15 | -1.61 ± 0.22 |
| GUAGAGCAAUAUUACGUGCA | -0.339 ± 0.11 | 0.541 ± 0.18 |
| GUAGAGCAAUAUUACGUUGC | -4.29 ± 0.3 | -3.11 ± 0.24 |
| GUAGAGCAAUAUUACGUUUC | -1.87 ± 0.15 | -0.679 ± 0.17 |

| Sequence | self-splicing fitness (ln) (30 °C) | self-splicing fitness (ln) (37 °C) |
| --- | --- | --- |
| GUAGAGCAAUAUUACGUUUG | -2.91 ± 0.24 | -2.23 ± 0.29 |
| GUAUAGCAAUAUUACGACUG | -2.88 ± 0.33 | -2.23 ± 0.33 |
| GUAUAGCAAUAUUACGAGAG | -1.56 ± 0.22 | -2.9 ± 0.34 |
| GUAUAGCAAUAUUACGAGUU | -3.29 ± 0.19 | -1.17 ± 0.14 |
| GUAUAGCAAUAUUACGCCCG | -1.63 ± 0.17 | -1.37 ± 0.23 |
| GUAUAGCAAUAUUACGGCAA | -0.453 ± 0.39 | -0.521 ± 0.35 |
| GUAUAGCAAUAUUACGGCAU | -0.587 ± 0.081 | -0.661 ± 0.1 |
| GUAUAGCAAUAUUACGGGCC | – | -1.55 ± 0.27 |
| GUAUAGCAAUAUUACGGGGU | -4.08 ± 0.27 | -1.4 ± 0.14 |
| GUAUAGCAAUAUUACGGUCC | -0.391 ± 0.28 | -1.19 ± 0.46 |
| GUAUAGCAAUAUUACGUAAU | -2.43 ± 0.14 | -0.699 ± 0.14 |
| GUAUAGCAAUAUUACGUCAU | -2.03 ± 0.17 | -0.747 ± 0.17 |
| GUAUAGCAAUAUUACGUGAG | -1.85 ± 0.13 | -1.42 ± 0.17 |
| GUAUAGCAAUAUUACGUGAU | -2.29 ± 0.15 | -1.71 ± 0.17 |
| GUCAAGCAAUAUUACGAGAG | -2.41 ± 0.18 | -2.31 ± 0.27 |
| GUCAAGCAAUAUUACGAUAG | -4.6 ± 0.42 | -3.02 ± 0.47 |
| GUCAAGCAAUAUUACGCCAU | -4.64 ± 0.42 | -3.01 ± 0.18 |
| GUCAAGCAAUAUUACGCCCG | -2.15 ± 0.21 | -1.11 ± 0.2 |
| GUCAAGCAAUAUUACGCGGA | -2.98 ± 0.17 | -2.02 ± 0.16 |
| GUCAAGCAAUAUUACGCGUA | -1.32 ± 0.08 | -0.362 ± 0.077 |
| GUCAAGCAAUAUUACGCUAA | -1.48 ± 0.15 | -1.45 ± 0.14 |
| GUCAAGCAAUAUUACGCUAG | -2.83 ± 0.15 | -2 ± 0.14 |
| GUCAAGCAAUAUUACGUAAA | -0.78 ± 0.058 | -0.463 ± 0.07 |
| GUCAAGCAAUAUUACGUAAC | -1.33 ± 0.17 | -0.545 ± 0.14 |
| GUCAAGCAAUAUUACGUCGU | -1.68 ± 0.066 | -0.826 ± 0.078 |

| Sequence | self-splicing fitness (ln) (30 °C) | self-splicing fitness (ln) (37 °C) |
| --- | --- | --- |
| GUCAAGCAAUAUUACGUGGU | -4.8 ± 0.3 | -3.09 ± 0.16 |
| GUCAAGCAAUAUUACGUGUC | -2.72 ± 0.13 | -1.46 ± 0.12 |
| GUCCAGCAAUAUUACGAAAC | -0.222 ± 0.15 | -0.568 ± 0.2 |
| GUCCAGCAAUAUUACGAACC | -1.97 ± 0.093 | -0.224 ± 0.11 |
| GUCCAGCAAUAUUACGAAUA | 0.0949 ± 0.13 | -0.595 ± 0.15 |
| GUCCAGCAAUAUUACGACAU | -0.524 ± 0.012 | 0.0313 ± 0.032 |
| GUCCAGCAAUAUUACGAGCG | -2.31 ± 0.14 | -0.864 ± 0.15 |
| GUCCAGCAAUAUUACGAUCC | -0.959 ± 0.087 | -0.16 ± 0.11 |
| GUCCAGCAAUAUUACGAUGA | -1.49 ± 0.084 | -0.996 ± 0.092 |
| GUCCAGCAAUAUUACGAUGU | -0.9 ± 0.07 | -0.235 ± 0.083 |
| GUCCAGCAAUAUUACGCAAA | -1.46 ± 0.12 | -0.457 ± 0.11 |
| GUCCAGCAAUAUUACGCAAU | -0.658 ± 0.071 | 0.419 ± 0.087 |
| GUCCAGCAAUAUUACGCAGA | -3.39 ± 0.4 | -1.87 ± 0.22 |
| GUCCAGCAAUAUUACGCCCU | -0.888 ± 0.13 | -0.617 ± 0.18 |
| GUCCAGCAAUAUUACGCCUA | -0.215 ± 0.095 | -0.244 ± 0.093 |
| GUCCAGCAAUAUUACGCGUG | -1.04 ± 0.063 | -0.469 ± 0.068 |
| GUCCAGCAAUAUUACGCUAU | -0.823 ± 0.055 | -0.104 ± 0.071 |
| GUCCAGCAAUAUUACGCUGU | -0.609 ± 0.073 | -0.386 ± 0.076 |
| GUCCAGCAAUAUUACGGAUA | -0.361 ± 0.056 | 0.0186 ± 0.063 |
| GUCCAGCAAUAUUACGGCAC | -1.17 ± 0.064 | -0.348 ± 0.092 |
| GUCCAGCAAUAUUACGGCAG | – | -2.06 ± 0.2 |
| GUCCAGCAAUAUUACGGGAC | -3.53 ± 0.2 | -2.94 ± 0.31 |
| GUCCAGCAAUAUUACGGGCG | -2.53 ± 0.12 | -0.72 ± 0.099 |
| GUCCAGCAAUAUUACGGGGA | -2.41 ± 0.13 | -1.37 ± 0.12 |
| GUCCAGCAAUAUUACGGGUG | -0.386 ± 0.052 | 0.0761 ± 0.067 |

| Sequence | self-splicing fitness (ln) (30 °C) | self-splicing fitness (ln) (37 °C) |
| --- | --- | --- |
| GUCCAGCAAUAUUACGGUCU | -2.7 ± 0.12 | -1.2 ± 0.12 |
| GUCCAGCAAUAUUACGUAGU | -0.119 ± 0.062 | 0.398 ± 0.08 |
| GUCCAGCAAUAUUACGUCCU | -1.77 ± 0.13 | -0.83 ± 0.12 |
| GUCCAGCAAUAUUACGUGCC | -1.16 ± 0.086 | -0.944 ± 0.11 |
| GUCCAGCAAUAUUACGUUGU | -0.537 ± 0.051 | 0.244 ± 0.066 |
| GUCCAGCAAUAUUACGUUUA | -0.851 ± 0.08 | -0.0697 ± 0.076 |
| GUCCAGCAAUAUUACGUUUU | -1.19 ± 0.052 | -0.221 ± 0.069 |
| GUCGAGCAAUAUUACGAAAU | – | -1.29 ± 0.49 |
| GUCGAGCAAUAUUACGAAGA | -3.82 ± 0.43 | -1.74 ± 0.31 |
| GUCGAGCAAUAUUACGACGG | – | -1.72 ± 0.43 |
| GUCGAGCAAUAUUACGAGAC | – | 0.237 ± 0.43 |
| GUCGAGCAAUAUUACGAUCC | -1.82 ± 0.17 | -0.489 ± 0.22 |
| GUCGAGCAAUAUUACGAUGC | -1.17 ± 0.18 | -1.09 ± 0.18 |
| GUCGAGCAAUAUUACGCCUA | – | -1.1 ± 0.41 |
| GUCGAGCAAUAUUACGCGAA | -1.39 ± 0.17 | 0.0361 ± 0.17 |
| GUCGAGCAAUAUUACGCGAG | -0.678 ± 0.096 | -0.901 ± 0.12 |
| GUCGAGCAAUAUUACGCUCA | -0.929 ± 0.21 | -0.388 ± 0.22 |
| GUCGAGCAAUAUUACGCUUU | -1.81 ± 0.18 | -1.92 ± 0.2 |
| GUCGAGCAAUAUUACGGAGU | -3.59 ± 0.19 | -0.791 ± 0.094 |
| GUCGAGCAAUAUUACGGAUU | -2.03 ± 0.26 | -0.691 ± 0.21 |
| GUCGAGCAAUAUUACGGCAC | -1.29 ± 0.18 | -0.213 ± 0.2 |
| GUCGAGCAAUAUUACGGCUU | – | -0.65 ± 0.49 |
| GUCGAGCAAUAUUACGGUUU | -1.86 ± 0.11 | -1.44 ± 0.13 |
